# Results: publication PMC4837482, “The complex binding mode of the peptide hormone H2 relaxin to its receptor RXFP1” (Nature Communications, 2016)
# Positions count from the first letter of the chain named.
# Assays:
# Assay in all cases: cAMP activity assay (pCRE β-galactosidase reporter), transfected HEK293T cells
# Format in all cases: cell-based
# [1] = target: T1, RXFP1 C40A^ins (Homo sapiens, UniProt Q9HBX9, INS62A); details: construct C40A^ins
# T1 construct: cells expressing full-length RXFP1 and mutants; expressed in transfected cells; host or cells: HEK293T
# T1 sequence (Q9HBX9 with tags, fused parts or gaps INS62A limits assumed): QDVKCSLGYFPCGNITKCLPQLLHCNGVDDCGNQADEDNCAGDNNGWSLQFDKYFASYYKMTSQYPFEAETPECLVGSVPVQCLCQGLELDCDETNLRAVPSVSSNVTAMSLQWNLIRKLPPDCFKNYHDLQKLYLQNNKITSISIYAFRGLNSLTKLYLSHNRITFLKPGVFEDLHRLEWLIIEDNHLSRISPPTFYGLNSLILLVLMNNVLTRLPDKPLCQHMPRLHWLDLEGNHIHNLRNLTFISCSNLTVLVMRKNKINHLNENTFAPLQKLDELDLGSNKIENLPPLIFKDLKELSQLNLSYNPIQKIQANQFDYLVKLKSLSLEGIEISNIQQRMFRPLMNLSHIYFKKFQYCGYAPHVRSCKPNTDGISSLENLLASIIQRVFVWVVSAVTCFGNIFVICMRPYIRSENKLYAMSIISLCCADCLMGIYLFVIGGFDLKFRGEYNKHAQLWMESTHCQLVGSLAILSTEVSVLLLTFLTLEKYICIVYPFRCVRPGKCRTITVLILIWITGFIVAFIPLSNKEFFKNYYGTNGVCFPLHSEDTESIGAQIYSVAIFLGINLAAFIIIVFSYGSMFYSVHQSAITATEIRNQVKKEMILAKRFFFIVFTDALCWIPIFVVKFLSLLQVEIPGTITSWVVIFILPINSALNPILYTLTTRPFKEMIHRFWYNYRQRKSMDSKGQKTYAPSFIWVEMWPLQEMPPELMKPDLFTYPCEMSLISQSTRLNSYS
# Summary of the method: (§1)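 H2 relaxin dilutions in minimal media with 1% DMSO; 5 μM Forskolin as positive control, media/1% DMSO as negative. After freezing at −80 °C, cells lysed in pH 8.0 phosphate buffers and chlorophenol red-β-D-galactopyranoside added; absorbance read at 570 nm. Responses given as % of 5 μM Forskolin maximum.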
# [2] = target: T2, RXFP1 F50A^ins (Homo sapiens, UniProt Q9HBX9, INS72A); details: construct F50A^ins, ±s.e.m.
# T2 construct: transiently transfected human embryonic kidney (HEK) 293T cells expressing full-length RXFP1 and mutants; expressed in transfected cells; host or cells: HEK293T
# T2 sequence (Q9HBX9 with tags, fused parts or gaps INS72A limits assumed): T1 sequence (Q9HBX9 with tags, fused parts or gaps INS62A limits assumed) with A41G, G42D, D43N, N45G, G46W, W47S, S48L, L49Q, Q50F, F51A
# Summary of the method: as §1
# [3] = target: T3, RXFP1 G41D42-AA (Homo sapiens, UniProt Q9HBX9, D64A/G63A)
# T3 construct: transiently transfected human embryonic kidney (HEK) 293T cells expressing full-length RXFP1 and mutants; expressed in transfected cells; host or cells: HEK293T
# T3 sequence (Q9HBX9 23-757 G63A/D64A limits assumed): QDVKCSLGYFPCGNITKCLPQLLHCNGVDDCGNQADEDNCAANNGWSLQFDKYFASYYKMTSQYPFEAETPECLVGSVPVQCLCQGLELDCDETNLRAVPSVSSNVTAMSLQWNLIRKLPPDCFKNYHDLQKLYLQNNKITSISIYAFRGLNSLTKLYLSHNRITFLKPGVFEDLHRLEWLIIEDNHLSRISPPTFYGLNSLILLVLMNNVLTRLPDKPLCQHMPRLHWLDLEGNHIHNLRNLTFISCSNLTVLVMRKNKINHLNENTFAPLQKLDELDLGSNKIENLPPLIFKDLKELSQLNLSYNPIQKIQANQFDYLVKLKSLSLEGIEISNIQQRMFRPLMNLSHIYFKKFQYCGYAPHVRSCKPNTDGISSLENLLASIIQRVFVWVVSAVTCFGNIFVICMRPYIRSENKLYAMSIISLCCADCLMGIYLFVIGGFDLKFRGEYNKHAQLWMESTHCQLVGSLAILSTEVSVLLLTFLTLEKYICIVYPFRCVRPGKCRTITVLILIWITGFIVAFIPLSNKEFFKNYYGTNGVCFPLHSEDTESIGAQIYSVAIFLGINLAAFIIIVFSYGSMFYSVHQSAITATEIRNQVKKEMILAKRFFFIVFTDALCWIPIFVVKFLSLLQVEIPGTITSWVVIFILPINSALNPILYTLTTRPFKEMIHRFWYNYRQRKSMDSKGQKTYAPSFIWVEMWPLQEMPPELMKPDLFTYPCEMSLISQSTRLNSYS
# Summary of the method: as §1
# [4] = percentage of maximum response to 5 μM Forskolin
substance,measurement,setting,value
H2 relaxin: two-chain 6-kDa peptide hormone structurally related to insulin; recombinant human gene-2 H2 relaxin provided by Corthera,H2 relaxin pEC50,[1]; cAMP reporter,No activity
same,H2 relaxin Emax,[1]; [4],No activity
same,H2 relaxin pEC50,[2]; cAMP reporter,9.41±0.13 (3)
same,H2 relaxin Emax,[2]; [4],93.62±5.34 (3) %
same,loss of H2 relaxin-stimulated cAMP activity,[3]; G41A/D42A RXFP1 versus wild-type RXFP1,"5,000 fold"
same,H2 relaxin Emax,"[3]; construct G41D42-AA, percentage of maximum response to 5 μM Forskolin, ±s.e.m.",106.8±46.67 (3) %
